Values joined by “and” are separate entries in the source; they are usually repeats but may differ in a detail not shown here. Identical values can stand only once.
Molecular target: GFP-tagged TDP-43-ΔNLS-KQ (GFP-TDP43-ΔNLS-K145Q, pTX066) (human) (UniProt Q13148)
Assay: non-reducing SDS-PAGE and immunoblot of immunoprecipitated aggregates

stoichiometry N: 2 and 4
Substance: GFP-tagged TDP-43-ΔNLS-KQ (GFP-TDP43-ΔNLS-K145Q, pTX066) (from UniProt Q13148 1-414) (natural protein)

— paper PMC10173608
